The record followed here is patent publication US20040018561.

Data set [1] deals with N-2-[(7-methoxy-2-oxo-2H-chromen-4-yl)acetyl]-L-arginyl-L-prolyl-L-leucylglycyl-6-(benzyloxy)-L-norleucyl-3-[(2,4-dinitrophenyl)amino]-L-alanyl-L-alanyl-L-arginyl-L-alpha-glutamyl-L-argininamide.
Data set [2] deals with N-2-[(7-methoxy-2-oxo-2H-chromen-4-yl)acetyl]-D-arginyl-L-prolyl-L-leucylglycyl-L-leucyl-3-[(2,4-dinitrophenyl)amino]-L-alanyl-L-alanyl-D-arginyl-D-alpha-glutamyl-D-argininamide.
The subject of data set [3] is N-2-[(7-methoxy-2-oxo-2H-chromen-4-yl)acetyl]-D-arginyl-L-prolyl-L-leucylglycyl-6-phenoxy-L-norleucyl-3-[(2,4-dinitrophenyl)amino]-L-alanyl-L-alanyl-D-arginyl-D-alpha-glutamyl-D-argininamide.
The subject of data set [4] is N-2-[(7-methoxy-2-oxo-2H-chromen-4-yl)acetyl]-L-arginyl-L-prolyl-L-leucylglycyl-L-leucyl-3-[(2,4-dinitrophenyl)amino]-L-alanyl-L-alanyl-D-arginyl-D-alpha-glutamyl-D-argininamide.
For data set [5], the system named is N-2-[(7-methoxy-2-oxo-2H-chromen-4-yl)acetyl]-D-arginyl-L-prolyl-L-leucylglycyl-6-(benzyloxy)-L-norleucyl-3-[(2,4-dinitrophenyl)amino]-L-alanyl-L-alanyl-D-arginyl-D-alpha-glutamyl-D-argininamide.
Data set [6] concerns N-2-[(7-methoxy-2-oxo-2H-chromen-4-yl)acetyl]-L-arginyl-L-prolyl-L-leucylglycyl-L-leucyl-3-[(2,4-dinitrophenyl)amino]-L-alanyl-L-alanyl-L-arginyl-L-alpha-glutamyl-L-argininamide.

Sequence of MMP-3 (chain, as listed by the source): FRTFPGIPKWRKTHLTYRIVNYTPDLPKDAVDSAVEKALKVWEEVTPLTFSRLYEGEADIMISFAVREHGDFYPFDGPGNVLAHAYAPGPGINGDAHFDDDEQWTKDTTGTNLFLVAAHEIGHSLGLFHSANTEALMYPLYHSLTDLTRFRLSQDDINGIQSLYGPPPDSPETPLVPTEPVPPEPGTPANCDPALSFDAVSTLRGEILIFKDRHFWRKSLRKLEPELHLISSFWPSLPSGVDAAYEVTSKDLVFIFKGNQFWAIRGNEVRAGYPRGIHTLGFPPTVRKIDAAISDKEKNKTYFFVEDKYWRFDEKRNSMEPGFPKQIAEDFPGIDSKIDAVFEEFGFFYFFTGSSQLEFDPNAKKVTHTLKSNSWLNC
Sequence of MMP-8 (chain, as listed by the source): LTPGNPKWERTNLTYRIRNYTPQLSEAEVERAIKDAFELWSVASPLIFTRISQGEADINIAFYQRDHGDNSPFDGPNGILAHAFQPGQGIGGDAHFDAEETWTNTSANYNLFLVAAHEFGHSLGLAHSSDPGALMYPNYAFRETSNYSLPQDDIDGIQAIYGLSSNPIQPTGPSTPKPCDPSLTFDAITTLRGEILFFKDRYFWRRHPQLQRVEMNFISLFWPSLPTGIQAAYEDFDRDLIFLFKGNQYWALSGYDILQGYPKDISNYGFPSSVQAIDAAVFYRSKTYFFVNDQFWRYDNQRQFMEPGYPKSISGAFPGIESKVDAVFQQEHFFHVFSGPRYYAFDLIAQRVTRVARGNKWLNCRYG
Sequence of MMP-9 (chain, as listed by the source): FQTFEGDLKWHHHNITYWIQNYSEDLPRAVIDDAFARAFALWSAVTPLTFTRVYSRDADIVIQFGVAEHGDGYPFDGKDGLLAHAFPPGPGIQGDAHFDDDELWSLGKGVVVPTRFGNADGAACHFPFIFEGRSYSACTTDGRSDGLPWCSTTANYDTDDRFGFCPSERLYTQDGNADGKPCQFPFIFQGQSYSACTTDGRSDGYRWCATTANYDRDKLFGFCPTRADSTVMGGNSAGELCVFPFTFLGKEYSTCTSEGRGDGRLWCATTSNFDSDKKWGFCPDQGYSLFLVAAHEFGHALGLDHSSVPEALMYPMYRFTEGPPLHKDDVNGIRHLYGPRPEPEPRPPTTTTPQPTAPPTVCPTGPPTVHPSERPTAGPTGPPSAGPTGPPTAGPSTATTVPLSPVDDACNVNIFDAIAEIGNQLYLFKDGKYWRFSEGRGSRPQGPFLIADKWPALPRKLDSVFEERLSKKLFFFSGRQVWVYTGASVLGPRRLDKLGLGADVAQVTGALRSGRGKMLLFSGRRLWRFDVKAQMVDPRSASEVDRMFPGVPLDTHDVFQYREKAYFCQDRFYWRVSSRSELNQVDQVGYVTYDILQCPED

Turning to MMP-3, the Km in data set [1] was 85.9 µM; in data set [2], 14 µM; in data set [4], 59.5 µM; in data set [5] it was 28.9 µM; in data set [6] it was 38.7 µM. Further, the kcat/Km in data set [1] is 4800 M⁻¹ s⁻¹; in data set [2] it was 6300 M⁻¹ s⁻¹; in data set [3], 0 M⁻¹ s⁻¹; in data set [4], 800 M⁻¹ s⁻¹; in data set [5], 1600 M⁻¹ s⁻¹; in data set [6], 9800 M⁻¹ s⁻¹.
MMP-8: the Michaelis constant (Km) in data set [1] stood at 9.1 µM; in data set [2], 16.7 µM; in data set [3], 4.4 µM; in data set [4], 13.3 µM; in data set [5] it was 3.3 µM; in data set [6], 20.1 µM. For the same substance, the kcat/Km turned out to be 179000 M⁻¹ s⁻¹ in data set [1]; 139000 M⁻¹ s⁻¹ in data set [2]; 522000 M⁻¹ s⁻¹ in data set [3]; 456000 M⁻¹ s⁻¹ in data set [4]; 146000 M⁻¹ s⁻¹ in data set [5]; 381000 M⁻¹ s⁻¹ in data set [6].
For MMP-9, the Km in data set [1] was found to be 2.3 µM; in data set [2], 6.4 µM; in data set [3], 1.4 µM; in data set [4], 8.2 µM; in data set [5], 3.3 µM; in data set [6], 6.2 µM. Moreover, the kcat/Km came out at 1.47e+06 M⁻¹ s⁻¹ in data set [1]; 418000 M⁻¹ s⁻¹ in data set [2]; 1.91e+06 M⁻¹ s⁻¹ in data set [3]; 1.33e+06 M⁻¹ s⁻¹ in data set [4]; 319000 M⁻¹ s⁻¹ in data set [5]; 1.29e+06 M⁻¹ s⁻¹ in data set [6].
Turning to MMP-13, the Michaelis-Menten constant (Km) amounted to 0.9 µM in data set [1]; 9 µM in data set [2]; 1.2 µM in data set [3]; 4.7 µM in data set [4]; 1.5 µM in data set [5]; 3.9 µM in data set [6]. The kcat/Km came out at 4.24e+06 M⁻¹ s⁻¹ in data set [1]; 296000 M⁻¹ s⁻¹ in data set [2]; 2.93e+06 M⁻¹ s⁻¹ in data set [3]; 4.08e+06 M⁻¹ s⁻¹ in data set [4]; 1.58e+06 M⁻¹ s⁻¹ in data set [5]; 3.92e+06 M⁻¹ s⁻¹ in data set [6].
